Measurements: patent US20240352105A1, “COMPOSITIONS AND METHODS FOR NEUTRALIZING ANTIGENS” (PACAGEN, INC, priority 2023, published 2024)

B1: SDAB22129-55-35-46-49-1-G02 (VHH)
VHH: QLQLVESGGGLVQAGGSLRLSCTASGRTFRNFGMGWFRQAPGKERKLVASISYVGGNTDYADSVKGRFTISMDNAKNTVVLQMNSLKPEDTAMYYCAARNPNRNEYPWWGQGTQVTVSS
notes: Expressed from a prokaryotic vector
B2: SDAB22129-55-35-46-49-1-C12 (VHH)
VHH: QVQLVESGGGLVQAGGSLRLSCAASGRTFSSYAMGWFRQAPGKEREFVAIISNTGGLTDYAHSVKGRFTISRDNAKNTGYLQMNSLKPEDTALYYCAADFLGPKSWPSYWGQGTQVTVSS
notes: as for B1
B3: SDAB22111-1-D6 (VHH)
VHH: DVQLVESGGGLVQPGGSLRLSCVASGLTFSYYDMKWHRQAPGKERELVAAIIEGGRTMYADSVKGRFTISRDSPKKSVYLQMNNLKSEDTAVYYCNAVRARFRGLGNDDAWGQGTQVTVSS
notes: anti-Der p2 alpaca VHH; prokaryotic expression
B4: SDAB22111-1-B1 (VHH)
VHH: DVQLVESGGGLVQPGGSLRLSCAASGFTFALYSMRWYRQAPGKERELVAAITSGRSTNYADSVKGRFTISRDNAKNTVYLQMNSLKPEDTAVYHCNARHPIATLGNYWGQGTPVTVSS
notes: as for B3
B5: SDAB22112-2-D08 (VHH)
VHH: QVKLEESGGGLVQAGGSLRLSCVASGRTFSRWHTGWYRQAPGREREFVATLRASGGDTYYADSVKGRFTISRDNAKNTVYLQMNSLKPEDTAVYYCNVWANWGAPPSDFSSWGQGTQVTVSS
notes: anti-Can f1 alpaca VHH
B6: SDAB22129-55-35-46-49-1-B02 (VHH)
VHH: QLQLVESGGGLVQSGGSLRLSCVAKGGTNHPYPIGWFRQAPGKEQEGVLCIASGGQTQDSAHNPNWADSVKGRFTISRDDATHTVYLEMNNLKADDTAVYFCAAPREIYIDSRCATYKYEYWGQGTQVTVSP
notes: as for B1
B7: SDAB22111-1-F9 (VHH)
VHH: QVQLVESGGGLVQPGGSLRLSCAASGRIFRPDGMAWYRQAPGKQREFVAGITRGGRTTYADSVKGRFTISRDNAENTVYLQMNSLKPEDTAVYYCNAKPSAWTLPRYRYDYWGQGTQVTVSS
notes: as for B3
B8: SDAB22112-1-C9 (VHH)
VHH: QLQLVESGGGLVQPGGSLRLSCVGSGFTFSLASMGWYRQAPGKEREWVASISSLDASTNYADSVKGRFTISRDNAKRMVYLQMNNLKSEDTAVYYCKAMNYWGKGTQVTVSS
notes: anti-Can f1 alpaca VHH
B9: SDAB22111-1-E10 (VHH)
VHH: QLQLVESGGGMVQPGGSLRLSCAASGTLFSTALMGWYRQAPGKQRTLVASITDGGSTNYVDSVKGRFTISRDNEKNTVYLQMNSLKFEDTAVYYCNAHWGSYDYWGQGTQVVVSS
notes: as for B3
B10: SDAB22129-55-35-46-49-1-B12 (VHH)
VHH: QVQLVESGGGLVQAGGPLRLSCAASGRTFSSYAMGWFRQAPGKEREFVAAISWSGDSTYYADSVKGRFTLSRDNAKNTVYLQMNSLKPEDTAVYYCAVPSSGRGTYYYTLSAYEYWGQGTQVTVFS
notes: as for B1
B11: SDAB22112-1-D12-3 (VHH)
VHH: QVQLVESGGGLVQPGGSLRLSCAASGFTFSNYGMSWVRQAPGKGLEWVSDVNSSGSRRFYVDSVKGRFTISRDNAKNTVFLQMNSLKPEDSAVYYCVKLAEAGTLIHVGSWGQGTRVTVSS
notes: anti-Can f1 alpaca VHH
B12: SDAB22111-1-F9-B03 (VHH)
VHH: EVQLVESGGGLVQPGGSLRLSCAASGRTFSSYAMGWFRQAPGKEREFVAGISRRGSNIYYADSVKGRFTISRDNAKNTVYLQMNSLKPEDTAVYYCNARHPRISTRLYWGQGTQVTVSS
notes: as for B3
B13: SDAB22129-55-35-46-49-1-D01 (VHH)
VHH: QVQLVESGGGLVQAGGSLRLSCAASGRTFSRYAMGWFRQAPGKEREFVAAITGSGSRTYYADSIQGRFTISRDNAKNTVYLQMNSLKPEDTAVYYCVQGWAEATMTSLGEDYDYWGQGTQVTVSS
notes: as for B1
B14: SDAB22129-55-35-46-49-1-G07 (VHH)
VHH: QVQLVESGGGLVQAGGSLRLSCAASGRTFSSYAMGWFRQAPGKERELVATISWSGGSTYYADSVKGRFTISRDNAKNTGFLQMNSLKPEDTAVYYCAADFASTVGTPLTRPAYWGQGTQVTVSS
notes: as for B1
B15: SDAB22111-1-H12 (VHH)
VHH: QVQLVESGGGLVQPGGSLRLSCAASRSIDRFPAMGWYRQAPGKKRELVAAISSANTRTKYADSVKGRFTISRDNAENTMYLQMNSLKPEDTAVYYCNVFPRPVQGYWGQGTQVTVSS
notes: as for B3
B16: SDAB22129-55-35-46-49-1-H08 (VHH)
VHH: EVQLVESGGGLVQAGGSLTLSCGRTTSIWGMGWFRQGRGKEREFVAAITPSGSITFYSDHVKGRFTVSRDNALNTVYLQMNSLKPEDTAVYYCARRGSSGSYYWAGSYEAWGQGTQVTVSS
notes: as for B1
B17: SDAB22112-1-C10 (VHH)
VHH: QLQLVESGGGLVQPGGSLRLSCAASGFTFSSYSMSWYRQAPGKERELVATIDTDGRTNYADSVKGRFTISRDNAKNSVYLQMNSLKPEDTAVYYCNRRQLGVDYWGQGTQVTVSS
notes: anti-Can f1 alpaca VHH
B18: SDAB22111-1-C1 (VHH)
VHH: QVQLVESGGGLVQPGGSLRLSCAASASFVGAYAMYWFRQATGKQRELVAFITSGNSTNYADSVKGRFTISRDYTKNTVYLQMNKLKPEDTAVYSCNLVTSRGDYWGQGTQVTVSS
notes: as for B3
B19: SDAB22112-1-B6-B05 (VHH)
VHH: QLQLVESGGGLVQPGGSLRLSCAASRSIFSSYVMAWYRRAPGKKRELVASIANVGSNTDYASFAKGRFTISRDDDKSRDNDKITVYLQMNSLNPEDTAVYYCNAWLGAGSDYWGQGTQVTVSS
notes: anti-Can f1 alpaca VHH
B20: SDAB22111-1-D3 (VHH)
VHH: QLQLVESGGGLVQPGGSLRLSCVVSGRTLSGHNMGWFRQAPGKEREFVARINSNGGTTRYADAVKGRFTISRDNAKNTAYLQMNSLKSEDTAVYYCRLVGPAGYWGQGTQVTVSS
notes: as for B3

How the values were obtained:
[1] = target: T1, recombinant His-tagged Der p1 (dust mite, UniProt P08176 99-320, limits assumed); experiment: cell-based or functional assay
T1 sequence (looked up): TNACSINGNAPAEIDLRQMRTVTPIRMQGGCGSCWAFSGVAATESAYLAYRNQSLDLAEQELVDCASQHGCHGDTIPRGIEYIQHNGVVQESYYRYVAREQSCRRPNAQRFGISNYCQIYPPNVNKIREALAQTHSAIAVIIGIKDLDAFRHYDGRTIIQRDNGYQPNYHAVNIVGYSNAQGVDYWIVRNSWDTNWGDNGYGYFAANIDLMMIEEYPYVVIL

[2] = target: T1, recombinant His-tagged Der p1; experiment: ELISA, antigen coated on plate
Description: (§1) 2 microgram per milliliter (μg/mL) target antigen is coated in a 96-well plate and ELISA assay is performed after incubation with candidate VHHs. The binding EC50 of each clone is calculated using Prism GraphPad. The positive control antibody is involved as an internal control.
Isolated VHH clones were further validated by performing an ELISA assay as described in Example 1. The individual binding curves are shown for each candidate in FIGS. 9A-9K.

[3] = target: T2, recombinant His-tagged Der p2 (dust mite, UniProt P49278 18-146); experiment: ELISA, antigen coated
T2 construct: also called Der p2-His; Der p2-HIS; not shown: His tag
T2 sequence (looked up): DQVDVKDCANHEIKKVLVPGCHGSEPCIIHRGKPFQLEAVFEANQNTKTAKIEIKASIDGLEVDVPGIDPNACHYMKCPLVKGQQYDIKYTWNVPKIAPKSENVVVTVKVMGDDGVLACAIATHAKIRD
Description: as §1
(§2) Isolated VHH clones were further validated by performing an ELISA assay as described in Example 1. Metrics of thermostability including melting temperature (Tₘ), onset temperature (Tₒₙₛₑₜ), and temperature of aggregation (Tagg), were also tested with increasing temperature in the range of 20° C.-95° C. at the speed of 1° C./min. These measurements were performed using a Nanotemper DSF. When applicable, Tₘ1 refers to the first melting point observed, Tₘ2 refers to the second melting point observed, etc., Sequence information for the VHH clones and the binding assay results are summarized in Table 3. The individual binding curves are shown for each candidate in FIGS. 3B-3I.

[4] = Thermostability (Tm, Tonset, Tagg) by Nanotemper DSF; format: physicochemical; parameters: key to Tm2 / Tagg / Tm1 / Tm / Tm3 / Tonset / Tonset ø (mean) / Tagg ø (mean): temperatures in °C; conditions: anti-Der p2 VHH; for Tagg: 20° C.-95° C. at 1° C./min; for Tm1: first melting point observed; for Tm2: second melting point observed
Description: as §2, with “(Tm),” for “(Tₘ),”, “(Tonset),” for “(Tₒₙₛₑₜ),”, “Tm1” for “Tₘ1”, “Tm2” for “Tₘ2”
(§3) Isolated VHH clones were further validated by performing an ELISA assay as described in Example 1. Metrics of thermostability including melting temperature (Tm), onset temperature (Tonset), and temperature of aggregation (Tagg), were also tested with increasing temperature in the range of 20° C.-95° C. at the speed of 1° C./min. The individual binding curves are shown for each candidate in FIGS. 5B-5H.
as §3, with “7B-7P.” for “5B-5H.”
The detailed thermostability graphs used to determine the Tm, Tonset, and Tagg are illustrated in FIGS. 19A-19I and raw data is summarized in Table 23. Any subsequent melting points observed (Tm1, Tm2, Tm3, etc.) are separated by commas.

[5] = target: T3, recombinant His-tagged Can f1 (dog (Canis familiaris), UniProt O18873 19-174); experiment: ELISA, antigen coated
T3 construct: also called Can f1-His; recombinant Can f1; not shown: His tag
Description: as §1
as §3, with “(Tₘ),” for “(Tm),”, “(Tₒₙₛₑₜ),” for “(Tonset),”

T3 sequence (O18873 19-174 limits assumed): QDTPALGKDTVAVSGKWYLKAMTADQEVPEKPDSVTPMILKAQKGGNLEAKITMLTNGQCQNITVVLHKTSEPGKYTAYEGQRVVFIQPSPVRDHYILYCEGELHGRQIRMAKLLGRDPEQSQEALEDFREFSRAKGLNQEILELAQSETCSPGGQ

| Molecule | Maximum Rate of Blocking [1] | EC50 [2] [µg/mL] | EC50 [3] [µg/mL] | also measured |
| --- | --- | --- | --- | --- |
| B1 | 85.2 | 4.21 | – | – |
| B2 | 91.6 | 4.95 | – | – |
| B3 | – | – | 9.66 | Tagg [4]: 41.57; Tm1 ([4]; in °C (unit assumed)): 49.02; Tm2 ([4]; in °C (unit assumed)): 62.55 |
| B4 | – | – | 8.23 | – |
| B5 | – | – | – | EC50 [5]: 5.84 µg/mL |
| B6 | 75.4 | 0.0193 | – | – |
| B7 | – | – | 4.95 | – |
| B8 | – | – | – | EC50 [5]: 13.1 µg/mL |
| B9 | – | – | 6.57 | – |
| B10 | 95.4 | 1.77 | – | – |
| B11 | – | – | – | EC50 [5]: 10.4 µg/mL |
| B12 | – | – | 15.9 | Tagg [4]: 40.04; Tm ([4]; single melting point, in °C (unit assumed)): 71.38 |
| B13 | 73 | 0.0147 | – | – |
| B14 | 93.3 | 0.485 | – | – |
| B15 | – | – | 2.67 | Tagg [4]: 43.37; Tm1 ([4]; in °C (unit assumed)): 51.93; Tm2 ([4]; in °C (unit assumed)): 59.13; Tm3 ([4]; third melting point, in °C (unit assumed)): 68.62 |
| B16 | 92.8 | 16.5 | – | – |
| B17 | – | – | – | EC50 [5]: 9.4 µg/mL |
| B18 | – | – | 1.11 | Tagg [4]: 43.53; Tm1 ([4]; in °C (unit assumed)): 54.52; Tm2 ([4]; in °C (unit assumed)): 66.51 |
| B19 | – | – | – | EC50 [5]: 8.42 µg/mL |
| B20 | – | – | 8.41 | Tagg [4]: 42.45; Tm1 ([4]; in °C (unit assumed)): 53.78; Tm2 ([4]; in °C (unit assumed)): 69.76 |
